The values that follow come from patent publication US20120034254A1.

Among the targets are CD4 (UniProt P01730); WT Hxbc2 core; Full length Hxbc2 gp120.
Test in all cases: SPR

The term Kd denotes a measure of binding affinity in units of concentration. Read a high Kd as a looser complex.

In the experiment with CD4, WT Hxbc2 core registered a Kd of 15.1 nM. That is a double-digit nanomolar value. On the same count and under the same terms, the value for Full length Hxbc2 gp120 was 6.29 nM. Regarding b12, the Kd was 2.67 nM with WT Hxbc2 core and 2.63 nM with Full length Hxbc2 gp120.
